Data reported in US20090304686A1, “INTERFERING IN ACTIVATION OF AN IMMUNE CELL BY INFLUENCING INTERACTION OF LAIR AND COLLAGEN” (UNIVERSOTAIR MEDISCH CENTRUM UTRECHT, priority 2006, published 2009).
Each block holds one substance with its values, some of them ahead of it.

What was measured:
[1] = target: hLAIR-1-CD3ζ chimera on 2B4 NFAT-GFP reporter cells (human) (UniProt Q6GTX8)
[2] = target: hLAIR-1-CD3ζ chimera on 2B4 NFAT-GFP reporter cells (human) (UniProt Q6GTX8); remark: listed apart in the source
[3] = target: collagen I (purified, Sigma; acid-soluble human collagen type I in BIAcore) (human) (UniProt P02452); assay: BIAcore, equilibrium binding to immobilized human collagen I
[4] = target: collagen I (purified, Sigma; acid-soluble human collagen type I in BIAcore) (human) (UniProt P02452); assay: SPR (BIAcore), equilibrium binding to immobilised collagen I
[5] = target: collagen I (purified, Sigma; acid-soluble human collagen type I in BIAcore) (human) (UniProt P02452)
[6] = target: collagen III (purified, Sigma; acid-soluble human collagen type III in BIAcore) (human) (UniProt P02461)
[7] = target: collagen I (purified, Sigma; acid-soluble human collagen type I in BIAcore) (human) (UniProt P02452); assay: SPR (BIAcore), biphasic dissociation from collagen I, component Koff2
[8] = target: collagen III (purified, Sigma; acid-soluble human collagen type III in BIAcore) (human) (UniProt P02461); assay: BIAcore, equilibrium binding to immobilized human collagen III
[9] = target: collagen I (purified, Sigma; acid-soluble human collagen type I in BIAcore) (human) (UniProt P02452); assay: SPR (BIAcore), biphasic dissociation from collagen I, component Koff1
[10] = target: collagen III (purified, Sigma; acid-soluble human collagen type III in BIAcore) (human) (UniProt P02461); assay: SPR (BIAcore), biphasic dissociation from collagen III, component Koff1
[11] = target: collagen III (purified, Sigma; acid-soluble human collagen type III in BIAcore) (human) (UniProt P02461); assay: SPR (BIAcore), equilibrium binding to immobilised collagen III
[12] = target: collagen III (purified, Sigma; acid-soluble human collagen type III in BIAcore) (human) (UniProt P02461); assay: SPR (BIAcore), biphasic dissociation from collagen III, component Koff2

Chain of collagen III (purified, Sigma; acid-soluble human collagen type III in BIAcore) (human) (P02461 154-1221): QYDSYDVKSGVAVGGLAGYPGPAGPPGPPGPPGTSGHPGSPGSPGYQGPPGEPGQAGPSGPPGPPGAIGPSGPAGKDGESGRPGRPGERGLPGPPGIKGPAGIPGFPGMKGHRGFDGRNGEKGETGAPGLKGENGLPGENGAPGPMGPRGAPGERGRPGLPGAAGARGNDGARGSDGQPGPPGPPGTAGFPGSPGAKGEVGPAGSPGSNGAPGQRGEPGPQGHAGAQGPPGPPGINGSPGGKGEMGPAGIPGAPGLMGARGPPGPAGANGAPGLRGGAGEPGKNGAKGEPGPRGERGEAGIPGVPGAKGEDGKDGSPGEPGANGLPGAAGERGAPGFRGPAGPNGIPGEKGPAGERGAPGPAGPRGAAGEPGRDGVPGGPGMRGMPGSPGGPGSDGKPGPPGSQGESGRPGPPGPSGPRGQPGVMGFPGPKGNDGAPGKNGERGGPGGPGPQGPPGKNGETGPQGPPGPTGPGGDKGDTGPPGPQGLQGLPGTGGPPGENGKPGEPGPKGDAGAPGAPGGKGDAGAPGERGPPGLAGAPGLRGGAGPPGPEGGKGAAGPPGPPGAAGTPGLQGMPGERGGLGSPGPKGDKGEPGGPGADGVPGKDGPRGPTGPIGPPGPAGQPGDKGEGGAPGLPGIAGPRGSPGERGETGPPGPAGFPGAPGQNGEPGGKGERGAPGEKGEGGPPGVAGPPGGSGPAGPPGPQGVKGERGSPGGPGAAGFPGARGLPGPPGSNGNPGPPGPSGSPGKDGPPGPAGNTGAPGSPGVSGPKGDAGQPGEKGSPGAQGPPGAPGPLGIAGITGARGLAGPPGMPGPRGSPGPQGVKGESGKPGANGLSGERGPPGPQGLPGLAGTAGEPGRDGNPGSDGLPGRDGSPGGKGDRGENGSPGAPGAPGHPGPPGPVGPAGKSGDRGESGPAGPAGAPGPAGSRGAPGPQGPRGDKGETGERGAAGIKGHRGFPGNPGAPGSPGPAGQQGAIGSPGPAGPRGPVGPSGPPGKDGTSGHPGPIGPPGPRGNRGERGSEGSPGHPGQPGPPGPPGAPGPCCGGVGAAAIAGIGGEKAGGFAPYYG
Chain of hLAIR-1-CD3ζ chimera on 2B4 NFAT-GFP reporter cells (human) (Q6GTX8 22-165, change not shown): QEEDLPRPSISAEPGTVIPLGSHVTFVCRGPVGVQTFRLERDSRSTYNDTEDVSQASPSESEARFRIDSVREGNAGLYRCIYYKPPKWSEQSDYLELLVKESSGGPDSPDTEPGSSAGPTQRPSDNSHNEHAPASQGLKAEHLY

percentage of GFP-positive reporter cells on Collagen I without block (parental cells 0.2) [1]: 55% | percentage of GFP-positive reporter cells on coated Col I (parental cells 0.3) [2]: 33.8%
Substance: collagen I (purified, Sigma; acid-soluble human collagen type I in BIAcore) (from UniProt P02452 162-1218; P08123 80-1119) (ligand)

Kd [3]: 34.6 nM | Bmax (mol/mol Col I) [4]: 10.4 | percentage of GFP-positive hLAIR-1-CD3ζ reporter cells on Collagen I pre-incubated with LAIR-2-IgG (55.0 without block) [5]: 0.5% | percentage of GFP-positive hLAIR-1-CD3ζ reporter cells on Collagen III pre-incubated with LAIR-2-IgG (45.3 without block) [6]: 8.4% | koff [7]: 0.0073 s⁻¹ | Kd [8]: 41.4 nM | koff [9]: 0.00083 s⁻¹ | koff [10]: 0.0005 s⁻¹ | Bmax (mol/mol Col III) [11]: 10.7 | koff [12]: 0.0046 s⁻¹
Substance: LAIR-2-IgG (human LAIR-2 fused to the Fc region of human IgG1) (from UniProt Q6ISS4 22-152) (Fc fusion)

percentage of GFP-positive hLAIR-1-CD3ζ reporter cells on Collagen I pre-incubated with Control IgG (55.0 without block) [5]: 50.3% | percentage of GFP-positive hLAIR-1-CD3ζ reporter cells on Collagen III pre-incubated with Control IgG (45.3 without block) [6]: 42.8%
Substance: Control IgG (Fc fusion)
